Measurements taken from paper PMC11446282.

Biological target: fluorescent peptide probe FITC-PEG2-…-Nle-IKKLEW
Assay: fluorescence polarisation

Chain of B55α (His-Strep-TEV fusion protein) (P63151 whole entry, the tested form may be a part): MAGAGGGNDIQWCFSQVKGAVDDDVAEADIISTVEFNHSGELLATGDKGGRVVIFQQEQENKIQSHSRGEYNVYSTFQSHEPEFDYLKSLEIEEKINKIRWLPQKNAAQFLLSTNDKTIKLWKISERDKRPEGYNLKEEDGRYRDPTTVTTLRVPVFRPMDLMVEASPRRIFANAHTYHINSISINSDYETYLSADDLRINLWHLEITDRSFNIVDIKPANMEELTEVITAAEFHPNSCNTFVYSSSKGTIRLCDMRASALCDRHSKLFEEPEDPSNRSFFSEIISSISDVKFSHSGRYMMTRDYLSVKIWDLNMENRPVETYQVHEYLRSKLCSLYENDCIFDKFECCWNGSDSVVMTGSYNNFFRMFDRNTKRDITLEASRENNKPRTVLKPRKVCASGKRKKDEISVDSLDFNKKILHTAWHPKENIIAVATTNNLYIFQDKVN

- Kd: 6 nM
Substance: B55α (His-Strep-TEV fusion protein) (from UniProt P63151 1-447) (natural protein)
